In patent US20090226456A1 (published 2009):

Tests used:
Experiment in all cases: flow cytometry on transiently transfected cells
[1] = biological target: T1, 4-1BB on transiently transfected cells (UniProt Q07011 24-255)
T1 construct: whole, on cells
Protocol: (§1) One million cells, in 0.1 ml of FACS buffer (PBS, 0.1% BSA, 0.1% NaN₃), were incubated with 0.1-1 microgram of protein or antibody at RT for 15 min. The cells were washed with 3 ml of FACS buffer, reacted with biotinylated primary antibody, and stained with PE-conjugated secondary antibody at RT for 15 min. Cells were then washed again, resuspended in 0.5 microgram/ml of propidium iodide, and live cells were gated and analyzed on a FACScan using the CellQuest software (BD Biosciences).

[2] = biological target: T2, RANK on transiently transfected cells (UniProt Q9Y6Q6 30-616, limits assumed)
T2 construct: whole, on cells
T2 sequence (looked up): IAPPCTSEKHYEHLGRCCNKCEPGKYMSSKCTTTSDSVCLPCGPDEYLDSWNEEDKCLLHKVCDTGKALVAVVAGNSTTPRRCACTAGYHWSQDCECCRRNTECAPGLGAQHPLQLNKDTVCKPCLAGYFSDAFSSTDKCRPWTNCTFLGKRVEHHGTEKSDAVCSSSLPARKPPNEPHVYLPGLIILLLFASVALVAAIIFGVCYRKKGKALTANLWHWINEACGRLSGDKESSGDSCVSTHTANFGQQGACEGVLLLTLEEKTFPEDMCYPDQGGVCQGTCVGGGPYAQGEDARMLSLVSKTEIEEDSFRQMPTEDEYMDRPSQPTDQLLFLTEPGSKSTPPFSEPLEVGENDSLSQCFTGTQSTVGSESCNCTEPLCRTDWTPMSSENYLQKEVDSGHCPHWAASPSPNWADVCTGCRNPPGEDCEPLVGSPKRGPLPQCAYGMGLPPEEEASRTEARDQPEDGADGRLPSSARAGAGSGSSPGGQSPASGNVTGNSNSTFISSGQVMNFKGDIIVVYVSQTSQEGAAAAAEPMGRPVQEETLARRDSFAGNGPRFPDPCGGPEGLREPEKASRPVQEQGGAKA
Protocol: as §1

[3] = biological target: T3, CD30 on transiently transfected cells (UniProt P28908 19-595, limits assumed)
T3 construct: whole, on cells
T3 sequence (looked up): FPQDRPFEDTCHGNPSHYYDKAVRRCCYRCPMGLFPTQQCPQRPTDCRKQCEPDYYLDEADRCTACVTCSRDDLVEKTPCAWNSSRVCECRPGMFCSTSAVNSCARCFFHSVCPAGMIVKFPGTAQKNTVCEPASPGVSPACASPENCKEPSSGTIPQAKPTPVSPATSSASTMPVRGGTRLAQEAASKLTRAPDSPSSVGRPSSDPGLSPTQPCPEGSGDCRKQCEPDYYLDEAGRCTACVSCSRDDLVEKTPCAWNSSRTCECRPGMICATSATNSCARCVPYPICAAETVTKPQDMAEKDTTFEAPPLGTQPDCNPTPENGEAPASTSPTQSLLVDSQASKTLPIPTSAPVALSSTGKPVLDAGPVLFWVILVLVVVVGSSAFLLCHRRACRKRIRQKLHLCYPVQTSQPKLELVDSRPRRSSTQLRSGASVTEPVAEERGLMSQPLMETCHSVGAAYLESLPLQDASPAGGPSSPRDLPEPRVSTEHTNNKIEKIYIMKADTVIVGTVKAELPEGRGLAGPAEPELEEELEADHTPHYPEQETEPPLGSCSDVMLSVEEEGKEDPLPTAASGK
Protocol: as §1

[4] = biological target: T4, DR4 on transiently transfected cells (UniProt O00220 24-468, limits assumed)
T4 construct: whole, on cells
T4 sequence (looked up): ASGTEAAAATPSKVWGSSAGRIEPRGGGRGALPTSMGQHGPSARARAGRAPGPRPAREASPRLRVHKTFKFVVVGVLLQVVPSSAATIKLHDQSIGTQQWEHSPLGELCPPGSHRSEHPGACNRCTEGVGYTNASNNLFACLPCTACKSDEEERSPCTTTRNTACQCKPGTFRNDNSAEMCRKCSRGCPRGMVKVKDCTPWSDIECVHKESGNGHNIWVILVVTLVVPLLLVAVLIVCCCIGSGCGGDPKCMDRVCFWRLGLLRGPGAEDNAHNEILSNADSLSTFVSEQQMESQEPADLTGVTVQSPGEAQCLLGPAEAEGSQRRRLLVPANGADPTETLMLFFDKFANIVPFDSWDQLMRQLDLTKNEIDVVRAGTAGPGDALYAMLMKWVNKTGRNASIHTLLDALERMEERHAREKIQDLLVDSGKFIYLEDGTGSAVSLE
Protocol: as §1

Measured: binding result

T1 sequence (Q07011 24-255): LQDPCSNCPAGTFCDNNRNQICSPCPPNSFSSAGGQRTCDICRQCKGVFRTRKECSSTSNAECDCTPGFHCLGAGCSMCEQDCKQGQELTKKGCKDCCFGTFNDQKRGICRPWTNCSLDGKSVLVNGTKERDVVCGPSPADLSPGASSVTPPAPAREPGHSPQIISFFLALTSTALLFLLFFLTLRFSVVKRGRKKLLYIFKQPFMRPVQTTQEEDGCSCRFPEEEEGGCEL

B1: FLAG-tagged soluble TNF-gamma-beta (aa 72-251) (ligand, human)
chain: DYKDDDDKLKGQEFAPSHQQVYAPLRADGDKPRAHLTVVRQTPTQHFKNQFPALHWEHELGLAFTKNRMNYTNKFLLIPESGDYFIYSQVTFRGMTSECSEIRQAGRPNKPDSITVVITKVTDSYPEPTQLLMGTKSVCEVGSNWFQPIYLGAMFSLQEGDKLMVNVSDISLVDYTKEDKTFFGAFLL
notes: also called FLAG-TNF-gamma-beta; FLAG-TL1β
no binding: all assays above
